According to article PMC10397247:
Each block holds one binder with its values, some of them ahead of it.

What was measured:
Assay in all cases: two-hybrid library CCNG1;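 note: natural log of median RNA to DNA barcode read ratio; higher means stronger binding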
O10-bH = biological target: T1, O10-bH; conditions: mean of both orientations
T1 chain: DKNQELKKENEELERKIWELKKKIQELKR

O11-bH = biological target: T2, O11-bH
T2 chain: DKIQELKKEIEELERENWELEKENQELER

O12-bH = biological target: T3, O12-bH
T3 chain: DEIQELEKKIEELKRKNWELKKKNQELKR

O13-bH = biological target: T4, O13-bH
T4 chain: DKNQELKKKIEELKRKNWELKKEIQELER

O14-bH = biological target: T5, O14-bH
T5 chain: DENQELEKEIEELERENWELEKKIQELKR

O15-bH = biological target: T6, O15-bH
T6 chain: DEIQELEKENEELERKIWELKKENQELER

O16-bH = biological target: T7, O16-bH
T7 chain: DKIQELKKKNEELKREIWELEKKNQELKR

O2-bH = biological target: T8, O2-bH
T8 chain: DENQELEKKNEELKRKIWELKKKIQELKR

O3-bH = biological target: T9, O3-bH
T9 chain: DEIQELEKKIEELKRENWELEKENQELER

O4-bH = biological target: T10, O4-bH
T10 chain: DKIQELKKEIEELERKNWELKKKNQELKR

O5-bH = biological target: T11, O5-bH
T11 chain: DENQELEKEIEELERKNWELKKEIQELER

O6-bH = biological target: T12, O6-bH
T12 chain: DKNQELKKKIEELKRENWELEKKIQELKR

O7-bH = biological target: T13, O7-bH
T13 chain: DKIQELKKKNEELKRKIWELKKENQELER

O8-bH = biological target: T14, O8-bH
T14 chain: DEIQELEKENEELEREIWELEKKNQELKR

O9-bH = biological target: T15, O9-bH; conditions: mean of both orientations
T15 chain: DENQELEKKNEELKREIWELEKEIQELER

4H1387-bN = biological target: T16, 4H1387-bN
T16 chain: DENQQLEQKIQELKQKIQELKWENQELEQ

4H1406-bN = biological target: T17, 4H1406-bN
T17 chain: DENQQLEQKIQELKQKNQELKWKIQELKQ

4H2162-bN = biological target: T18, 4H2162-bN
T18 chain: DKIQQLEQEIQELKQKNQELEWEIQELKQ

4H3592-bN = biological target: T19, 4H3592-bN
T19 chain: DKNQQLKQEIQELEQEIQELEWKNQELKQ

4H3601-bN = biological target: T20, 4H3601-bN
T20 chain: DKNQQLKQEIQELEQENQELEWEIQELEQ

4H3907-bN = biological target: T21, 4H3907-bN
T21 chain: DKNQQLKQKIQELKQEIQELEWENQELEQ

4H4038-bN = biological target: T22, 4H4038-bN
T22 chain: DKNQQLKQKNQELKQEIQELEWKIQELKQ

4H454-bN = biological target: T23, 4H454-bN
T23 chain: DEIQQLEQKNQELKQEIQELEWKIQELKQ

interaction score (O10-bH): 0.392
interaction score (O11-bH): -0.919
interaction score (O12-bH): -1.91
interaction score (O13-bH): 0.177
interaction score (O14-bH): -1.44
interaction score (O15-bH): -0.726
interaction score (O16-bH): 0.522
interaction score (O2-bH): 0.103
interaction score (O3-bH): 1.13
interaction score (O4-bH): 0.524
interaction score (O5-bH): 0.349
interaction score (O6-bH): 0.0839
interaction score (O7-bH): 0.671
interaction score (O8-bH): -0.465
interaction score (O9-bH): 0.317
Binder: DKNQELKKENEELERKIWELKKKIQELKR [O10-bH]

interaction score (4H1387-bN): -1.9
interaction score (4H1406-bN): -0.625
interaction score (4H2162-bN): -2.27
interaction score (4H3592-bN): 0.94
interaction score (4H3601-bN): -0.293
interaction score (4H3907-bN): 1.31
interaction score (4H4038-bN): 0.464
interaction score (4H454-bN): -0.28
Binder: DENQQLEQKIQELKQKIQELKWENQELEQ [4H1387-bN]
